Factor Xa amidolytic assay, 50% inhibitory concentration data for one substance are collected here from US20050064556A1.

The target in the test is factor Xa. As to the kind of experiment: cell-based or functional assay.

“Tissue Factor Pathway Inhibitor (TFPI), yeast-produced, authentic mature 276 amino acid polypeptide (from UniProt P10646 29-304)” displayed a factor Xa amidolytic assay, 50% inhibitory concentration of 20 ng/mL.
